In publication PMC7921634:

Legend:
[1] = biological target: S-Trimer (ectodomain of wild-type SARS-CoV-2 Spike protein fused to Trimer-Tag) (SARS-CoV-2 | human) (UniProt P0DTC2); test: SDS-PAGE under non-reducing and reducing conditions
[2] = biological target: S-Trimer (ectodomain of wild-type SARS-CoV-2 Spike protein fused to Trimer-Tag) (SARS-CoV-2 | human) (UniProt P0DTC2); test: negative-stain electron microscopy; S-Trimer 25 μg/mL in PBS adjusted to pH 5.5; 1% uranyl formate pH 4.0; FEI Tecnai spirit, 120 KeV
[3] = biological target: ACE2-Fc (soluble human ACE2 fused to human IgG Fc) (human) (UniProt Q9BYF1); test: BLI; ForteBio Octet QKe; ACE2-Fc (10 µg/mL) immobilized on Protein A biosensors; 2-fold serial dilutions of S-Trimer (22.5–36 µg/mL in PBS); KD by steady state analysis, 1:1 binding model
Sequence of ACE2-Fc (soluble human ACE2 fused to human IgG Fc) (human) (Q9BYF1 18-738): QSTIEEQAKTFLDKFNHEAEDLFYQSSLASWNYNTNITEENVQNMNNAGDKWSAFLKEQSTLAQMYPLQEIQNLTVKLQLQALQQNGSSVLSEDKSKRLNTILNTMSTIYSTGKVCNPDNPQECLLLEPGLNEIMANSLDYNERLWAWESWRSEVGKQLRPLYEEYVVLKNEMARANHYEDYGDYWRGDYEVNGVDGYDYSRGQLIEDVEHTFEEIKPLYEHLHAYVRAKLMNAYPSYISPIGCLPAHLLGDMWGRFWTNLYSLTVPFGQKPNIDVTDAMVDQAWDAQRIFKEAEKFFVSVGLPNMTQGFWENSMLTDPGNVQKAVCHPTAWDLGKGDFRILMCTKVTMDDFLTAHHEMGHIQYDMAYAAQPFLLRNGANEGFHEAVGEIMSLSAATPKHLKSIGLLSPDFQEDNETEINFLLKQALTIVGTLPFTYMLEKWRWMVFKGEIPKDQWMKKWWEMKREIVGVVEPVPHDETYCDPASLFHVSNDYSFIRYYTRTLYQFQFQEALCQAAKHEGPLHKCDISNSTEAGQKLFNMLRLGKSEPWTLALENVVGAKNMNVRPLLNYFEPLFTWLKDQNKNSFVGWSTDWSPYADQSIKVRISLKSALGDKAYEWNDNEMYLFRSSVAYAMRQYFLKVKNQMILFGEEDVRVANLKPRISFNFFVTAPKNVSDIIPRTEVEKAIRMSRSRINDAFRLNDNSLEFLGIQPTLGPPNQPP

## S-Trimer (ectodomain of wild-type SARS-CoV-2 Spike protein fused to Trimer-Tag) (from UniProt P0DTC2;P02452)
[1]
  stoichiometry N: 3
[2]
  stoichiometry N: 3
[3]
  Kd: 1.33 nM
